Article PMC11366018 (Nature Communications, 2024)

How the values were obtained:
SARS-CoV-2 RBD (WT) [1] = molecular target: T1, SARS-CoV-2 RBD (WT) (SARS-CoV-2 Wuhan-Hu-1 (wildtype), UniProt P0DTC2); experiment: BLI; details: both partners purified
Bat CoV RaTG13 RBD [2] = molecular target: Bat CoV RaTG13 RBD (Bat coronavirus RaTG13, UniProt A0ABF7PLN6); experiment: BLI; details: both partners purified
Bat CoV RaTG13 RBD [3] = molecular target: Bat CoV RaTG13 RBD (Bat coronavirus RaTG13, UniProt A0ABF7PLN6, strain); experiment: BLI; details: both partners purified
SARS-CoV-2 RBD (WT) [4] = molecular target: T1, SARS-CoV-2 RBD (WT); experiment: BLI; details: both partners purified; remark: listed apart in the source
Pangolin CoV GD1 RBD = Pangolin CoV GD1 RBD (Pangolin coronavirus Guangdong, isolate …, strain); experiment: BLI; details: both partners purified
[5] = molecular target: T2, wildtype SARS-CoV-2 spike receptor binding domain (RBD), residues 319-541 (SARS-CoV-2, wildtype (ancestral), UniProt P0DTC2); experiment: BLI; details: both partners purified
[6] = molecular target: T2, wildtype SARS-CoV-2 spike receptor …; experiment: cell-based or functional assay
SARS-CoV-1 RBD = SARS-CoV-1 RBD (SARS-CoV-1, strain , UniProt P59594); experiment: BLI; details: both partners purified

Binder	Kd (SARS-CoV-2 RBD (WT) [4]) [µM]	koff (SARS-CoV-2 RBD (WT) [4]) [s⁻¹]	kon (SARS-CoV-2 RBD (WT) [4]) [M⁻¹ s⁻¹]	Kd (Pangolin CoV GD1 RBD) [µM]	koff (Pangolin CoV GD1 RBD) [s⁻¹]	kon (Pangolin CoV GD1 RBD) [M⁻¹ s⁻¹]	Kd (Bat CoV RaTG13 RBD [3]) [µM]	koff (Bat CoV RaTG13 RBD [3]) [s⁻¹]	kon (Bat CoV RaTG13 RBD [3]) [M⁻¹ s⁻¹]	further results
R1-26 (antibody, V domains shown) VH: EVQLVESGGGLVQPGGSLRLSCAASGFTFSSYWMSWVRQAPGKGLEWVANIKQDGSEKYYVDSVKGRFTISRDNAKNSLYLQMNSLRAEDTAVYYCARGQLGPWVGVDYWGQGTLVTVSS VL: NFMLTQPHSVSESPGKTVTISCTGSSGSIASNYVQWYQQRPGSAPTTVIYEDNQRPSGVPDRFSGSIDSSSNSASLTISGLKTEDEADYYCQSYDSSNWVFGGGTQLTVL	–	–	–	–	–	–	–	–	–	Kd (SARS-CoV-2 RBD (WT) [1]): 0.00384 µM; koff (SARS-CoV-2 RBD (WT) [1]): 0.00177 s⁻¹; kon (SARS-CoV-2 RBD (WT) [1]): 460000 M⁻¹ s⁻¹
H18 (recombinant mAb, IgG) (antibody, V domains shown) VH: QVQLQESGPGLVKPSETLSLTCTVSGGSVSSGGYFWSWIRQPPGKGLEWIGCIYYSGSTNYNPSLKSRVTISVDTSKDQFSLKLSSVTAADTAVYYCARQLWLRGRFDYWGQGTLVTVSS VL: NFMLTQPHSVSESPGKTVTISCTRSSGSIASNYVQWYQQRPGSSPTTVIYEDNQRPSGVPDRFSGSIDSSSNSASLTISGLKTEDEADYYCQSYDSSNVVFGGGTKLTVL	–	–	–	–	–	–	–	–	–	binding result (Bat CoV RaTG13 RBD [2]): binds
H5 (antibody, V domains shown, human IgG1) VH: QVQLVESGGGLVKPGGSLRLSCAASGFTFSDYYMSWIRQAPGKGLEWVSYISSSGSTIYYADSVKGRFTISRDNAKNSLYLQMNSLRAEDTAVYYCARAKWLRGHFDYWGQGTLVTVSS VL: NFMLTQPHSVSESPGKTVTISCTRSSGSIASNYVQWYQQRPGSSPTTVIYEDNQRPSGVPDRFSGSIDSSSNSASLTISGLKTEDEADYYCQSYDSSNVVFGGGTKLTVL	1.5	0.195	129000	–	–	–	–	–	–	binding result (Bat CoV RaTG13 RBD [3]): no binding (tested: 200 nM (highest of the series))
H4 (antibody, V domains shown) VH: EVQLVESGGGLVQPGGSLRLSCAASGFTFSSYWMSWVRQAPGKGLEWVANIKQDGSEKYYVDSVKGRFTISRDNAKNSLYLQMNSLRAEDTAVYYCASQLWLRGAFDIWGQGTMVTVSS VL: NFMLTQPHSVSESPGKTVTISCTRSSGSIASNYVQWYQQRPGSSPTTVIYEDNQRPSGVPDRFSGSIDSSSNSASLTISGLKTEDEADYYCQSYDSSNVVFGGGTKLTVL	0.03	0.0105	351000	0.355	0.0102	28800	0.503	0.0134	26700	–
H14 (antibody, V domains shown, human IgG1) VH: QVQLQESGPGLVKPSQTLSLTCTVSGGSISSGGYYWSWIRQHPGKGLEWIGYIYYSGSTYYNPSLKSLVTISVDTSKNQFSLKLSSVTAADTAVYYCARKGWLRGAFDIWGQGTMVTVSS VL: NFMLTQPHSVSESPGKTVTISCTRSSGSIASNYVQWYQQRPGSSPTTVIYEDNQRPSGVPDRFSGSIDSSSNSASLTISGLKTEDEADYYCQSYDSSNVVFGGGTKLTVL	0.034	0.0182	536000	0.451	0.0205	45500	0.302	0.0151	49900	–
R1-26 (IgG) (antibody, V domains shown) VH: EVQLVESGGGLVQPGGSLRLSCAASGFTFSSYWMSWVRQAPGKGLEWVANIKQDGSEKYYVDSVKGRFTISRDNAKNSLYLQMNSLRAEDTAVYYCARGQLGPWVGVDYWGQGTLVTVSS VL: NFMLTQPHSVSESPGKTVTISCTGSSGSIASNYVQWYQQRPGSAPTTVIYEDNQRPSGVPDRFSGSIDSSSNSASLTISGLKTEDEADYYCQSYDSSNWVFGGGTQLTVL	–	–	–	–	–	–	–	–	–	Kd [5]: 0.0038 µM; pseudovirus neutralization IC50 (pseudovirus displaying WT SARS-CoV-2 S-protein) [6]: 0.0027 µM
H18 (antibody, V domains shown, human IgG1) VH: QVQLQESGPGLVKPSETLSLTCTVSGGSVSSGGYFWSWIRQPPGKGLEWIGCIYYSGSTNYNPSLKSRVTISVDTSKDQFSLKLSSVTAADTAVYYCARQLWLRGRFDYWGQGTLVTVSS VL: NFMLTQPHSVSESPGKTVTISCTRSSGSIASNYVQWYQQRPGSSPTTVIYEDNQRPSGVPDRFSGSIDSSSNSASLTISGLKTEDEADYYCQSYDSSNVVFGGGTKLTVL	–	–	–	0.134	0.00624	46500	0.332	0.00612	18400	Kd (SARS-CoV-1 RBD): 0.231 µM; koff (SARS-CoV-1 RBD): 0.00283 s⁻¹; kon (SARS-CoV-1 RBD): 12300 M⁻¹ s⁻¹
H16 (antibody, V domains shown, human IgG1) VH: QLQLQESGPGLVKPSETLSLTCTVSGGSISSSSYYWGWIRQPPGKGLEWIGSIYYSGSTYYNPSLKSRVTISVDTSKNQFSLKLSSVTAADTAVYYCARREWLRGPFDYWGQGTLVTVSS VL: NFMLTQPHSVSESPGKTVTISCTRSSGSIASNYVQWYQQRPGSSPTTVIYEDNQRPSGVPDRFSGSIDSSSNSASLTISGLKTEDEADYYCQSYDSSNVVFGGGTKLTVL	0.0979	0.0498	509000	0.737	0.0254	34400	–	–	–	binding result (Bat CoV RaTG13 RBD [3]): no binding (tested: 200 nM (highest of the series))
